This note sets out measurements from the DeepSol protein solubility set.

The data set is described as follows: soluble on expression in E. coli; label from the status in PepcDB or PDB records.
As to “MLSALLIRNIRNASKLASVAGPNSDRIVNVKWSDGKTGVFPLIWLRDTSPDPSTYTISPAMTARKLTMLEFDVEQNARKLWIDEDANCLKIEWESGVLSEFPSEWLKIRNPSDQEARRRRRKVYLFPEQTWGKAEIEGKLKKFSHEEFMKNEQVVHDFLQAVCIDGIAVLKGAPQGVRGAVEAIGDRIGMIKRTHFGLVFEVSLKADASNMAYASNGGLPFHTDFPSLSHPPQLQMLHMLQSAEEGGHSLFVDGFHVAEQLRVEKPEIFKILTTQSMEYIEEGYDVHEINGKTIRFDYDMCARHKVIRLNDDGKVNKIQFGNAMRSWFYDCEPSKVQDVYRAMKTFTEYCYQPRNMLKFRLEDGDTVLWANQRLLHTRDGFRNAPEKARTLTGCYFDWDIVKSRVRFLRDKLSLEQNQPSA”, the “soluble on expression in E. coli” value is “not soluble”. The same measure for “MLSETELRALKKLSTTTSRVVGDSTLALPSNVKLSKGEVEKIAVTKKEMFDELAQCNLPTIELITREHTFNGDVIRFAAWLFLMNGQKLMIANNVAVRMGMQYATNLAGNNVKITYVTSNNVVKLGHIAAGVLANPYSNKGSGLFITYEHNLISNQIETGKVCVLFITSLSTTASSTNSFAYSACSVPIEDWDFNMIKLTAETSCASLTAMTNLVNSLVPGERTRPVGLYVDIPGVTVTTSASSGSLPLTTIPAVTPLIFSAYTKQVEEVGVINTLYALSYLP”: “soluble”; for “MLSKIELMLLRSLETGKTYTPEEAAELSGLSKDAVLKAAYMLQERGYVRVIENVRTHYSLTEEGERYLKEGLPEEKLYSLVKSGVNSMDELRKRMGREFQIALGWLRRKGAVEVEGDKVVPKREPSFDERA”: “soluble”. The same measure for “MLSKPMELLRPSKGMINVHPIQRGGILTEEARKVLLEWGDGYSMCDICLEGRVDLLDKPPVKRFKEEVAEFLGMDEVRFTAGARHAKFVAMSGFKGALVVDSLAHYTTYIAAELNGLRVYEVPNTGYPEFRIEAESYTDVFEKVKEETGDYPAVALLTHADYKYGNLADAKKVAEICRDYGIPLILNTAYTSGIMEVSGRETGCDFIVASGHKSWAATAPIGILATTFEFAERVFRVSEVRGNWSGRAFTKKEVALFGCSPVYGLPLVTLMASFPVVKERVKRWKEEVEKARWFVEEMEKIEGVMLLGERPKNHTLMNFETPSFNLIAKKHRRKGYFLYHELKERGIFGVQPGMTRNVKLNVYGLSWEEVERVAEAFKEIAEKYGLEVED”: “not soluble”; for “MLSLATFFITMTTHRKPSQEQGFLNGQFLLAMPGMSDERFARSVVYICAHSDEGAMGFIINQLQPVQFPDLLRQIGVIGEEDLIILPDRAQHMVVRNGGPVDRTRGFVLHSDDYMVDSTMPVSDDVCLTATVDILRAIYGGGGPERALMALGYSGWAPGQLEMEVAENGWLTCDAPLDMLFDSDIEGKYSRLMLHMGIDMSRLVSDAGHAAADPLEHHHHHH”: “not soluble”. The same measure for “MLSMCNKYPDFDDEERVRRVDDDFRDVITVFDAPFEGKSPSPAVIVFDELVDSDGSSKYLNFKMEQSYEKVDEIPEKIDAERIRYAIHLGSHSQKNVLQIFQSAYSDGYTEEDKNGKVPVGGKVKCAETETGFRTKINCENVVTAVNEYMDSNREKFGELRIETLNKAERNLDGYIYFSFLKQKPCRNLFIRIPPLE”: “not soluble”; for “MLSRLSSIFRYFGTTSTIATMSPKKVTIIGSGNWGSAIARIVGSTTKSFPDEFDPTVRMWVFEEIVNGEKLSEVINNRHENIKYLPGKVLPNNVVAVTDLVESCEGSNVLVFVVPHQFVKGICEKLVGKIPADTQAISLIKGVSTEKRGGLKLISEEIKEILKIEVSVLMGANLAPEVANDNFCEATIGCKRKAEDGPLLKKLFHTDNFRINVVEDAHTVELCGALKNVVACAAGFTDGLGYGDNTKAAVIRLGLMETTKFVEHYYPGSNLQTFFESCGIADLITTCYGGRNRKVCEAFVKTGKSMAEVEKELLNGQSAQGPLTAEEVYLMMHKTGLDAKFPLFTAVHKICAGEMKPAELVDCLRNHPEHM”: “not soluble”.

On to “MLSRNIGAVRGAHKAATTKPVEKVAKLGNGLTVGTIDSHKPIAHLVLAFRAGSRYEKANQAGLSHTIRNFVGRDTQEYFGNTVVWTLSQTGGVLKSFTSRDLFGVSLTIPRESTSVGLSVLGQVAGNPGFKPWEVEDVLPTMRADNGYRTAYDLVVDQIHKAAYRNGGLGNSIYAPCSKIGSICTSTLSSFAEQHFVTGNGVLFATNAVHDDLLLYGDNHAPIRSGNAASPSSSAYKGGEVRRDADSKYAHVIVAGEGAAGNNTKALATQAVLLTALGNSSPVKFNTGTTGVIAKAVGQNGSASAFQAVHADSGLAGVYLVVEGSQANQAVSNVVGALKSLKVADIEAVKKQAFNNALRASAHSDNFAIERASQLFQSQDNYIQQIPNVSASDVEVAAKKLTTKLSLASYGNVSEVPYVDTL”, for which the “soluble on expression in E. coli” value is listed as “not soluble”. The same measure for “MLSRPSGTVAKTEFQLRRNVLPALKRFVSAAAKSAGVQEKTTVLENGLRVSSVELNGATSSIVLAFRAGSRYQPANKQGLTHLIRNSVGRDAPNFPGLALVWNTAQNGGNLTAVSNRDVLAIEVNVVRDQSAVVLSLLGQLGNNAFKPWDVEDVKHDTLPADATYLTGTTIAFEQLHQAAFRNGGLGLSNYSVNNVSAKDLSAFAKERLVAGEAVLVGVNVDHDTLVQAGSTQFPLAQNQPAKATPAKYFGGEARKDGRGNRSYVAIAGEGSAITSVKDVAVQAVVAQILLNAAQKVTSEAISVNVNYQDSGLVGVQFAACNTQITQVTKSIASAIKSAKADGLDNAKNTAAVQVLSDAQHASEVALEKATQVLAGVEVSPREFADAIRAVTAQDVTQALSRVNGKLSLAAYGSTSLVPYLDEL”: “not soluble”; for “MLSTGLDELVYRSNLIGSDRAVCNWGGGNTSMKTVEKDFRGREIAVMWVKGSGSDLATMGAKNFTGLNLEDIRPLIEREEMSDEEMVEYLGHCMIDRNHPRPSIETLLHAFLPFKHVDHTHPDAIISICCADNGKEIAKNLFGDRFVWVPYVRPGFSLSKLIAEGVQKNPHAELVLMEKHGLVVWGETAKESYDRTISVINEAEAYIRSRINESVIFGGGKLEHHHHHH”: “not soluble”; for “MLSTLSKSARLNQTRFIRLSHSAAAAKDAKPKKVAAVDSPSFVMNLFRGKAVTDQVFPYPLNMTDEQKETLGMVMSPLEKMLVEVNDVVKNDETSDIPRAVLDQFAELGTFGVLVPPELEGSGFNNSQMARVAEIVGAYDLGFGVVMGAHQSIGYKGILLEGTDAQKQKYLPDLATGRKFAAFALTEPTTGSDASSVRTRAELSADGKHYVLNGGKIWISNGGFADVFTVFAQTPVKQADGSTKDKMSAFIVERAFGGVTSGPQEKKMGIKGSNTTEVHFDNLKIPVENLLGKEGEGFKVAMNILNNGRFGIPAACTGAMKHCIQKTVDHITTRVQFGKKLQEFGNIQEKLVEMISKLYATESIVYMLSSNMDRGIKEYQLEAAIGKVLASENAWLVCDDAIQVHGGMGFMRETGLERVLRDLRIFRIFEGANDVLRLFIALTGAQHAGKHLAEQASGVGGLIGLAVSRVTGGNTGSNFGQVVDASLQDSAKVLDQQIALFGQTVQGLLMKHKKGIIDRQYEMHRVADAAINIYSSAAVLSRATYAIKNKSSSADFERKVATYYVDKAMKSSNRFLKDAGSGVENASKVATIESLAKEVCGNGGLTLQHPVEL”: “not soluble”. Then “MLTAQTKNTQTLMPLTERVNVQADSARINQIIDGCWVAVGTNKPHAIQRDFTNLFDGKPSYRFELKTEDNTLEGYAKGETKGRAEFSYCYATSDDFKGLPADVYQKAQITKTVYHHGKGACPQGSSRDYEFSVYIPSSLDSNVSTIFAQWHGMPDRTLVQTPQGEVKKLTVDEFVELEKTTFFKKNAGHEKVVRLDKQGNPMKDKNGKPVYKAGKLNGWLVEQGGYPPLAFGFSGGLFYIKANSDRKWLTDKDDRCNANPGKTPVMKPLTSEYKASTIAYKLPFADFPKDCWITFRVHIDWTVYGKEAETIVKPGMLDVRMDYQEQGKKVSKHIVNNEKILIGRNDEDGYYFKFGIYRVGDSTVPVCYNLAGYSERLE”, with “soluble”; and “MLTDLSIRNLAIIDSLHVSFDRGLTVLTGETGAGKSIIIDAVNLIMGGRASAELVRTGEEEATVEALFSLPTDAPLGQRLAAMGLDCDGELLVKRVVSRSGRNRVFIGGGLSTLAMLSDISRELVNIYGQHESQTLLRPENHLRLLDGFAGLDSLRADYAAIFDRYRETEARLRELDEGEREAARRLDLLSFQVEEIHAAALAPGEEEALAGERELLVNAERLSRGSEEAYEALYGDESSVLHLLARVKGRVAEISGVDASLAPLLDVVESAAAQLEDAALTLRGYGARIEADPARLEAVDERLDLIRRLKKKYAPTVEEIIAYGEEAAREMELLLNRDRTRSDLDRELETLAGRVRETGHGLSAKRHEAAKRLKAAMEREIHELAMKHALFDVAFEELPEPRQTGLDSVTFLFSPNPGEEPKPLARIASGGELSRLMLALKQVHPESDVPTLIFDEVDTGIGGATSALVGEKLKRVSRAQQVLCITHHPQVAAFADRHYKVEKRVEGGRTATAVTPLEGEDRVAEMARMLGGVTITGTTLDHAREMIEGARRAAVGG”, with “not soluble”; and “MLTSAQTRSLFRNNIFYKYRTAISVCQSIGRSIRSEEDWAYTFTLDSRFPKYISDHRNLINESVSFYEKRIPDFPSEKSIQKLKNEIFRNLPFLEHHHHHH”, with “not soluble”. Then “MLTSHFPLPFAGHRLHIVDFDASSFREHDLLWLPHHDRLRSAGRKRKAEHLAGRIAAVHALREVGVRTVPGMGDKRQPLWPDGLFGSISHCATTALAVISRQRIGIDIEKIMSQHTATELAPSIIDSDERQILQASLLPFPLALTLAFSAKESVYKAFSDRVTLPGFNSAKVTSLTATHISLHLLPAFAATMAERTVRTEWFQRDNSVITLVSAITRVPHDRSAPASILSAIPR”, with “not soluble”; and “MLTSKPEIKNSELNSYLVGGAVRDKLLNRPIKDEDYLVVGASIEQMIKLGYHQVGKDFPVFLHPKTKAEYALARTERKQGQGYTGFSCYFAPDVTIEQDLLRRDLTVNAMAMDHNGKIIDPYNGQNDLNDRILRHVSDAFIEDPLRVLRVARFAARYHKYGFTIADETLTLMQEISASGELKCLTPERVWQEMQLSLADGGANSDTNSGNPEVFFEVLQQCNALEELWPELAVLWGIPNPALWHPEICSGIHTMMVLQQAVLLTQAIPDEHSDHRTAVRFAALCHDLGKGVTSDKLWPSHKGHETSGLPLVERICGQLKVPSHYKQLALKVCEFHLHCHKAFELKASTLLKMFNQLDIWRKPEEFDLFLMACKSDFLGRLGFENRAYPQEQYLQAAVKAARKVTAQPFLEKGLQGLAIKEAMAKERLSVIANIKADFAHLNPTPQ”, with “not soluble”. Turning to “MLYPDTGRRSLVQYLSGSTGEPDGRTENRRMFMDTIGEAVLRSCQPYVRTVFNSVVVLNIMRTTHIVSMDVAHLANISASGQMFNYSLSFLGMKHVILMLWRCW”, the “soluble on expression in E. coli” value is on record as “not soluble”.
